Where a chain is given by its changes, count along the chain named. Numbers in names are those of the source.
T1: Interleukin-24 (human, UniProt Q13007 52-206)
T1 construct: Interleukin-24, human, UniProt Q13007; see the manufacturer's catalogue number; also called IL-24; source: bought: PeproTech (source CHO)
T1 sequence (looked up): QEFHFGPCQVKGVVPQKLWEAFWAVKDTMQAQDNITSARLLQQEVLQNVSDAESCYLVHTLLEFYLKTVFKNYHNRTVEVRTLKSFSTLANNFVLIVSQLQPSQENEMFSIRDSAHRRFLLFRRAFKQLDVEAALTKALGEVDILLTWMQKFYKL

T2: Prolactin (human, UniProt P01236 29-227)
T2 construct: Prolactin, human, UniProt P01236; see the manufacturer's catalogue number; also called PRL; source: bought: PeproTech (source E. coli)
T2 sequence (looked up): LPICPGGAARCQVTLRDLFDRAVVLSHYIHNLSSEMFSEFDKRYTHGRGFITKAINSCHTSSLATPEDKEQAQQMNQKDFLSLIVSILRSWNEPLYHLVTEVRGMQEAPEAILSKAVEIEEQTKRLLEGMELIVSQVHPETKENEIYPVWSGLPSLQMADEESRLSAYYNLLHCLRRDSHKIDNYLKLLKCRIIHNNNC

T3: Interleukin-26 (human, UniProt Q9NPH9 22-171)
T3 construct: Interleukin-26, human, UniProt Q9NPH9; see the manufacturer's catalogue number; also called IL-26; source: bought: R&D Systems (source E. coli)
T3 sequence (looked up): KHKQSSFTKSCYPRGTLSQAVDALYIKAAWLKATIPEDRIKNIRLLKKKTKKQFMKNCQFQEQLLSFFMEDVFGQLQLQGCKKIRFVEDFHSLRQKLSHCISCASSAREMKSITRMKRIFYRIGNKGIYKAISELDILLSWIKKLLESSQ

B1: Human S100P protein (recombinant, Ca^2+-loaded) (natural protein)
chain: MTELETAMGMIIDVFSRYSGSEGSTQTLTKGELKVLMEKELPGFLQSGKDKDAVDKLLKDLDANGDAQVDFSEFIVFVAAITSACHKYFEKAGLK
notes: S100P protein, human, recombinant; probably the whole 95-residue protein (surmise); also called wild-type S100P; WT S100P; source: E. coli, prepared as previously described [28]
B2: Human S100P mutant F89A (natural protein)
chain: B1 chain with F89A
notes: S100P protein, human, recombinant, with F89A; source: E. coli, prepared as previously described [28]
B3: Human S100P mutant Δ42–47 (lacks PGFLQS sequence in the 'hinge') (natural protein)
chain: MTELETAMGMIIDVFSRYSGSEGSTQTLTKGELKVLMEKELGKDKDAVDKLLKDLDANGDAQVDFSEFIVFVAAITSACHKYFEKAGLK
notes: S100P protein, human, recombinant, with residues 42-47 (PGFLQS) deleted; source: E. coli, prepared as previously described [28]

How the values were obtained:
Experiment in all cases: SPR; cytokine immobilised on ProteOn GLH sensor chip by amine coupling (9,000-14,000 RU); S100P (wild type or mutant) as analyte, 62 nM-16 µM; 25 °C; 10 mM HEPES, 150 mM NaCl, 1 mM CaCl2, 0.05% TWEEN 20, pH 7.4; heterogeneous ligand model (two ligand populations), one-site model for IL-13; values averaged over analyte concentrations (n = 3-5)
Conditions in all cases: both partners purified
Interleukin-24 = biological target: T1, Interleukin-24
[1] = biological target: T4, Granulocyte-macrophage colony-stimulating factor (human, UniProt P04141 18-144)
T4 construct: Granulocyte-macrophage colony-stimulating factor, human, UniProt P04141; see the manufacturer's catalogue number; also called GM-CSF; source: bought: PeproTech (source E. coli)
T4 sequence (P04141 18-144): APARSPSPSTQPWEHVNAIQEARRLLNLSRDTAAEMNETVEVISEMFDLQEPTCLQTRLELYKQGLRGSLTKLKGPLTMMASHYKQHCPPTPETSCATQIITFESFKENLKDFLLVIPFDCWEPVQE

Interleukin-13 = biological target: T5, Interleukin-13 (human, UniProt P35225 25-146)
T5 construct: Interleukin-13, human, UniProt P35225; see the manufacturer's catalogue number; also called IL-13; source: bought: PeproTech (source E. coli)
T5 sequence (P35225 25-146): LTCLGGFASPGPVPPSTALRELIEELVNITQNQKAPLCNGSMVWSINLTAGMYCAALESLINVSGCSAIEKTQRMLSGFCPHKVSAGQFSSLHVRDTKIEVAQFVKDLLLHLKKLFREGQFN

Interleukin-21 = biological target: T6, Interleukin-21 (human, UniProt Q9HBE4 25-162)
T6 construct: Interleukin-21, human, UniProt Q9HBE4; see the manufacturer's catalogue number; also called IL-21; source: bought: PeproTech (source E. coli)
T6 sequence (Q9HBE4 25-162): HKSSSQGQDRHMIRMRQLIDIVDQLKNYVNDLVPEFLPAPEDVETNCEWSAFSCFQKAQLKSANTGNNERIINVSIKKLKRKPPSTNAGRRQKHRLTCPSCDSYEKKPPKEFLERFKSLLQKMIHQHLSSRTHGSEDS

Prolactin = biological target: T2, Prolactin
Interleukin-26 = biological target: T3, Interleukin-26

Row | Binder | Kd1 (heterogeneous ligand model, population 1) (Interleukin-24) [nM] | Kd2 (heterogeneous ligand model, population 2) (Interleukin-24) [nM] | kd1 (heterogeneous ligand model, population 1) (Interleukin-24) [s⁻¹] | kd2 (heterogeneous ligand model, population 2) (Interleukin-24) [s⁻¹] | Kd1 (heterogeneous ligand model, population 1) [1] [nM] | Kd2 (heterogeneous ligand model, population 2) [1] [nM] | kd1 (heterogeneous ligand model, population 1) [1] [s⁻¹] | kd2 (heterogeneous ligand model, population 2) [1] [s⁻¹] | Kd (Interleukin-13) [µM] | koff (Interleukin-13) [s⁻¹] | Kd1 (heterogeneous ligand model, population 1) (Interleukin-21) [nM] | Kd2 (heterogeneous ligand model, population 2; column head printed as Kd1) (Interleukin-21) [nM] | Kd1 (heterogeneous ligand model, population 1) (Prolactin) [nM] | Kd2 (heterogeneous ligand model, population 2; column head printed as Kd1) (Prolactin) [µM] | Kd (Interleukin-26) [µM] | Kd (Interleukin-21) [µM] | Kd (Prolactin) [µM]
1 | B1 | 158 | 918 | 0.000483 | 0.00794 | 245 | 450 | 0.00113 | 0.0672 | 2.3 | 0.0183 |  |  |  |  |  |  | 
2 | B2 |  |  |  |  |  |  |  |  |  |  | 401 | 950 | 689 | 3.12 | > 100 |  | 
3 | B3 |  |  |  |  |  |  |  |  |  |  |  |  |  |  | > 100 | > 100 | > 100

Reference: PMC9569990 (International Journal of Molecular Sciences, 2022)
